Test results taken from patent US20140093973A1 (BOARD OF REGENTS OF THE UNIVERSITY OF OKLAHOMA, published 2014).
Like-named read-outs stand apart in the source and are kept apart here. Ends that are not written are not given here.

Columns and labels:
[1] = molecular target: soluble HLA-A*0201 (sHLA-A*0201) (human); test: FP screen
[2] = molecular target: T1, soluble HLA-B*2705 (sHLA-B*2705) (human); test: FP screen
T1 construct: Recombinant soluble class I with endogenous peptides, made as m1; negative control

[3] = molecular target: T2, soluble HLA-A*6801 (sHLA-A*6801) (human); test: FP screen
T2 construct: Recombinant soluble class I with endogenous peptides, made as m1

[4] = molecular target: T3, soluble HLA-A*0101 (human); test: FP screen
T3 construct: Member of the panel of 53 single-specificity sHLA

[5] = molecular target: T4, soluble HLA-A*3601 (human); test: FP screen
T4 construct: Member of the panel of 53 single-specificity sHLA

[6] = molecular target: T5, soluble HLA-A*3402 (human); test: FP screen
T5 construct: Member of the panel of 53 single-specificity sHLA

[7] = molecular target: T6, soluble HLA-A*2601 (human); test: FP screen
T6 construct: Member of the panel of 53 single-specificity sHLA

[8] = molecular target: T7, soluble HLA-B*1302 (human); test: FP screen
T7 construct: Member of the panel of 53 single-specificity sHLA

[9] = molecular target: T8, soluble HLA-B*1512 (human); test: FP screen
T8 construct: Member of the panel of 53 single-specificity sHLA

[10] = molecular target: T9, soluble HLA-A*0301 (human); test: FP screen
T9 construct: Member of the panel of 53 single-specificity sHLA

[11] = molecular target: T10, soluble HLA-A*3002 (human); test: FP screen
T10 construct: Member of the panel of 53 single-specificity sHLA

[12] = molecular target: T11, soluble HLA-B*1801 (human); test: FP screen
T11 construct: Member of the panel of 53 single-specificity sHLA

[13] = molecular target: T12, soluble HLA-B*4002 (human); test: FP screen
T12 construct: Member of the panel of 53 single-specificity sHLA

[14] = molecular target: T13, soluble HLA-B*4402 (human); test: FP screen
T13 construct: Member of the panel of 53 single-specificity sHLA

[15] = molecular target: T14, soluble HLA-A*4301 (sHLA-A*4301) (human); test: FP screen
T14 construct: Recombinant soluble class I with endogenous peptides, made as m1

[16] = molecular target: T15, soluble HLA-A*1102 (sHLA-A*1102) (human, UniProt P04439 25-308; P61769 21-119); test: FP screen
T15 construct: Recombinant soluble class I with endogenous peptides, made as m1

[17] = molecular target: T16, soluble HLA-A*2402 (human); test: FP screen of 53 sHLA with FITC-peptide
T16 construct: Member of the panel of 53 single-specificity sHLA

[18] = molecular target: T3, soluble HLA-A*0101; test: FP competition against 1.6 nM FITC-labeled P2(A*0101), 41.0 µg/ml sHLA A*0101T (C22)
[19] = molecular target: T17, soluble HLA-A*2902 (human); test: FP competition against 1.5 nM FITC-labeled P2(A*0101), 49.9 µg/ml sHLA A*2902T (1224)
T17 construct: Member of the panel of 53 single-specificity sHLA

[20] = molecular target: soluble HLA-A*0201 (sHLA-A*0201) (human); test: FP screen; remark: listed apart in the source
[21] = molecular target: T1, soluble HLA-B*2705 (sHLA-B*2705); test: FP screen; remark: listed apart in the source
[22] = molecular target: T2, soluble HLA-A*6801 (sHLA-A*6801); test: FP screen; remark: listed apart in the source
[23] = molecular target: T7, soluble HLA-B*1302; test: FP screen; remark: listed apart in the source
[24] = molecular target: T8, soluble HLA-B*1512; test: FP screen; remark: listed apart in the source
[25] = molecular target: T9, soluble HLA-A*0301; test: FP screen; remark: listed apart in the source
[26] = molecular target: T18, soluble HLA-A*6901 (sHLA-A*6901) (human); test: FP screen
T18 construct: Recombinant soluble class I with endogenous peptides, made as m1

[27] = molecular target: T16, soluble HLA-A*2402; test: FP screen
[28] = molecular target: T19, soluble HLA-A*2301 (human); test: FP screen
T19 construct: Member of the panel of 53 single-specificity sHLA

[29] = molecular target: T20, soluble HLA-A*6601 (human); test: FP screen
T20 construct: Member of the panel of 53 single-specificity sHLA

[30] = molecular target: T21, soluble HLA-B*4501 (human); test: FP screen
T21 construct: Member of the panel of 53 single-specificity sHLA

[31] = molecular target: T10, soluble HLA-A*3002; test: FP screen; remark: listed apart in the source
[32] = molecular target: T11, soluble HLA-B*1801; test: FP screen; remark: listed apart in the source
[33] = molecular target: T12, soluble HLA-B*4002; test: FP screen; remark: listed apart in the source
[34] = molecular target: T22, soluble HLA-B*4001 (human); test: FP screen
T22 construct: Member of the panel of 53 single-specificity sHLA

[35] = molecular target: T13, soluble HLA-B*4402; test: FP screen; remark: listed apart in the source
[36] = molecular target: T3, soluble HLA-A*0101; test: FP screen of 53 sHLA with FITC-peptide
[37] = molecular target: T17, soluble HLA-A*2902; test: FP screen of 53 sHLA with FITC-peptide
[38] = molecular target: T4, soluble HLA-A*3601; test: FP screen of 53 sHLA with FITC-peptide
[39] = molecular target: T5, soluble HLA-A*3402; test: FP screen of 53 sHLA with FITC-peptide
[40] = molecular target: T6, soluble HLA-A*2601; test: FP screen of 53 sHLA with FITC-peptide
[41] = molecular target: T23, soluble HLA-B*1501 (human); test: FP screen of 53 sHLA with FITC-peptide
T23 construct: Member of the panel of 53 single-specificity sHLA

[42] = molecular target: B*0702T (human, UniProt P61769); test: FP competition against 1.9 nM FITC-labeled P1(B*0702), 40 µg/ml sHLA B*0702T (955)
[43] = molecular target: soluble HLA-A*0201 (sHLA-A*0201) (human); test: FP screen; remark: listed apart in the source
[44] = molecular target: T1, soluble HLA-B*2705 (sHLA-B*2705); test: FP screen; remark: listed apart in the source
[45] = molecular target: T3, soluble HLA-A*0101; test: FP screen; remark: listed apart in the source
[46] = molecular target: T4, soluble HLA-A*3601; test: FP screen; remark: listed apart in the source
[47] = molecular target: T6, soluble HLA-A*2601; test: FP screen; remark: listed apart in the source
[48] = molecular target: T8, soluble HLA-B*1512; test: FP screen; remark: listed apart in the source
[49] = molecular target: T18, soluble HLA-A*6901 (sHLA-A*6901); test: FP screen; remark: listed apart in the source
[50] = molecular target: T16, soluble HLA-A*2402; test: FP screen; remark: listed apart in the source
[51] = molecular target: T19, soluble HLA-A*2301; test: FP screen; remark: listed apart in the source
[52] = molecular target: T21, soluble HLA-B*4501; test: FP screen; remark: listed apart in the source
[53] = molecular target: T10, soluble HLA-A*3002; test: FP screen; remark: listed apart in the source
[54] = molecular target: T11, soluble HLA-B*1801; test: FP screen; remark: listed apart in the source
[55] = molecular target: T12, soluble HLA-B*4002; test: FP screen; remark: listed apart in the source
[56] = molecular target: T22, soluble HLA-B*4001; test: FP screen; remark: listed apart in the source
[57] = molecular target: T13, soluble HLA-B*4402; test: FP screen; remark: listed apart in the source
[58] = molecular target: T14, soluble HLA-A*4301 (sHLA-A*4301); test: FP screen; remark: listed apart in the source
[59] = molecular target: T17, soluble HLA-A*2902; test: FP screen of 53 sHLA with FITC-peptide; remark: listed apart in the source
[60] = molecular target: T5, soluble HLA-A*3402; test: FP screen of 53 sHLA with FITC-peptide; remark: listed apart in the source
[61] = molecular target: T23, soluble HLA-B*1501; test: FP screen of 53 sHLA with FITC-peptide; remark: listed apart in the source
[62] = molecular target: T9, soluble HLA-A*0301; test: FP screen of 53 sHLA with FITC-peptide
[63] = molecular target: T20, soluble HLA-A*6601; test: FP screen of 53 sHLA with FITC-peptide
[64] = molecular target: T9, soluble HLA-A*0301; test: FP competition against 1.8 nM FITC-labeled P1(A*0301), 42.1 µg/ml sHLA A*0301T (2798)

KYPENKFLL (also: FITC-labeled, position not given here) [KYPENKFLL, FITC-labeled A24-like peptide]
binding result [1]: no binding (tested: 100 ug/ml sHLA)
binding result [2]: no binding (tested: 100 ug/ml sHLA)
binding result [3]: no binding (tested: 100 ug/ml sHLA)
binding result [4]: no binding (tested: 100 ug/ml sHLA)
binding result [5]: no binding (tested: 100 ug/ml sHLA)
binding result [6]: no binding (tested: 100 ug/ml sHLA)
binding result [7]: no binding (tested: 100 ug/ml sHLA)
binding result [8]: no binding (tested: 100 ug/ml sHLA)
binding result [9]: no binding (tested: 100 ug/ml sHLA)
binding result [10]: no binding (tested: 100 ug/ml sHLA)
binding result [11]: no binding (tested: 100 ug/ml sHLA)
binding result [12]: no binding (tested: 100 ug/ml sHLA)
binding result [13]: no binding (tested: 100 ug/ml sHLA)
binding result [14]: no binding (tested: 100 ug/ml sHLA)
binding result [15]: no binding (tested: 100 ug/ml sHLA)
binding result [16]: no binding (tested: 100 ug/ml sHLA)
binding result [17]: binds

ATDFKFAMY [C1(A*0101)]
IC50 [18]: 1570 nM
IC50 [19]: 8630 nM

YTDGVPLKY (also: FITC-labeled, position not given here) [YTDGVPLKY, FITC-labeled A1-like peptide]
binding result [20]: no binding (tested: 100 ug/ml sHLA)
binding result [21]: no binding (tested: 100 ug/ml sHLA)
binding result [22]: no binding (tested: 100 ug/ml sHLA)
binding result [23]: no binding (tested: 100 ug/ml sHLA)
binding result [24]: no binding (tested: 100 ug/ml sHLA)
binding result [25]: no binding (tested: 100 ug/ml sHLA)
binding result [26]: no binding (tested: 100 ug/ml sHLA)
binding result [27]: no binding (tested: 100 ug/ml sHLA)
binding result [28]: no binding (tested: 100 ug/ml sHLA)
binding result [29]: no binding (tested: 100 ug/ml sHLA)
binding result [30]: no binding (tested: 100 ug/ml sHLA)
binding result [31]: no binding (tested: 100 ug/ml sHLA)
binding result [32]: no binding (tested: 100 ug/ml sHLA)
binding result [33]: no binding (tested: 100 ug/ml sHLA)
binding result [34]: no binding (tested: 100 ug/ml sHLA)
binding result [35]: no binding (tested: 100 ug/ml sHLA)
binding result [36]: binds
binding result [37]: binds
binding result [38]: binds
binding result [39]: binds
binding result [40]: binds
binding result [41]: binds

LVMAPRTVL
IC50 [42]: 276 nM

SLFRAVIKK (also: FITC-labeled, position not given here) [SLFRAVIKK, FITC-labeled A3-like peptide]
binding result [43]: no binding (tested: 100 ug/ml sHLA)
binding result [44]: no binding (tested: 100 ug/ml sHLA)
binding result [45]: no binding (tested: 100 ug/ml sHLA)
binding result [46]: no binding (tested: 100 ug/ml sHLA)
binding result [47]: no binding (tested: 100 ug/ml sHLA)
binding result [48]: no binding (tested: 100 ug/ml sHLA)
binding result [49]: no binding (tested: 100 ug/ml sHLA)
binding result [50]: no binding (tested: 100 ug/ml sHLA)
binding result [51]: no binding (tested: 100 ug/ml sHLA)
binding result [52]: no binding (tested: 100 ug/ml sHLA)
binding result [53]: no binding (tested: 100 ug/ml sHLA)
binding result [54]: no binding (tested: 100 ug/ml sHLA)
binding result [55]: no binding (tested: 100 ug/ml sHLA)
binding result [56]: no binding (tested: 100 ug/ml sHLA)
binding result [57]: no binding (tested: 100 ug/ml sHLA)
binding result [58]: no binding (tested: 100 ug/ml sHLA)
binding result [59]: binds
binding result [60]: binds
binding result [61]: binds
binding result [62]: binds
binding result [63]: binds

SLFRAVITK [C2(A*0301)]
IC50 [64]: 518 nM
